# Experiment: soluble on expression in E. coli; label from the status in PepcDB or PDB records
row,Sequence,soluble on expression in E. coli
1,MSLSRITTDQLRHAVLDRGSFVSWDSEPLAVPVADSYARELAAARAATGADESVQTGEGRVFGRRVAVVACEFDFLGGSIGVAAAERITAAVERATAERLPLLASPSSGGTRMQEGTVAFLQMVKIAAAIQLHNQARLPYLVYLRHPTTGGVFASWGSLGHLTVAEPGALIGFLGPRVYELLYGDPFPSGVQTAENLRRHGIIDGVVALDRLRPMLDRALTVLIDAPEPLPAPQTPAPVPDVPTWDSVVASRRPDRPGVRQLLRHGATDRVLLSGTDQGEAATTLLALARFGGQPTVVLGQQRAVGGGGSTVGPAALREARRGMALAAELCLPLVLVIDAAGPALSAAAEQGGLAGQIAHCLAELVTLDTPTVSILLGQGSGGPALAMLPADRVLAALHGWLAPLPPEGASAIVFRDTAHAAELAAAQGIRSADLLKSGIVDTIVPEYPDAADEPIEFALRLSNAIAAEVHALRKIPAPERLATRLQRYRRIGLEGHHHHHH,not soluble
2,MGSDKIHHHHHHMGDIQYTVRDDLKLFVNSIMVQQSADGNARFRLPLYADGYPGIMFQQSESGFFRFPESKQLSEFFLYGQTLEPISLEVQGTYRFVVFQLYPFASKYLLGIDPKELNDACYDLMQFQYIDMEVYSKQLTAAPDPESLIACMSDGVAALIGLNKPPHNDRIQQAIKQIIETEGRMRISDLSEAVCLSERTLERNFLGEVGLSPKQFAKIIQFQSSLTKLTDANAETLTAIGLDSGFTDQSHFIRVFKQYTGQTPSQYIKNQTR,not soluble
3,MKELDKIDFRILKILQQNARIPMTELAEKVGLSTTPVTERVRRLEREHYISGYHAHLNPHLLGKPLLVFVELKLQSKSGNIFEDFKKEVLKIPQIMECHLVSGEYDYLIKVRLPDMSAYRDMLGNILLQLPAASESRSYVVMEEVKENPVLDLD,soluble
4,MFNKKENSSPDVFDTLIGVNTFLEGNIETEGTVRIDGKIKGNVKVKGDVYIGKDANINGNISANNVYMSGRVDGNIEAKGVLRILSTAQLYGDILVQSLISDEGSIFEGNCKMVSASNAQNSDGSVSKNNKNVKDKDGDKSHTSA,not soluble
5,METNFIGDDYGPLFHYQYRLIVIGDSTVGKSSLLRYFTEGKMAEISDPTVGVDFYARMIELRPGYRVKLQLWDTAGQEKFRSITKSYYRNSVGVLAIYDTTNRESFEHVENWVKEAALNLGGPSPSKCVFQLVGTKSDMDSQRQVNYEEGEYFAKYHKMKFIETSSRTGDNVNEAFHMIAQEIQNRVDDGELRPVDGWEGLKTGIMRSQSVCLSERSFPQNSSAGACGC,not soluble
6,MFGIFDKGQKIKGTVVLMPKNVLDFNAITSIGKGGVIDTATGILGQGVSLVGGVIDTATSFLGRNISMQLISATQTDGSGNGKVGKEVYLEKHLPTLPTLGARQDAFSIFFEWDASFGIPGAFYIKNFMTDEFFLVSVKLEDIPNHGTIEFVCNSWVYNFRSYKKNRIFFVNDTYLPSATPAPLLKYRKEEFEVLRGDGTGKRKDFDRIYDYDVYNDLGNPDGGDPRPILGGCSIYPYPLRVRTGRERTRTDPNSEKPGEVYVPRDENFGHLKSSDFLTYGIKSLSHDVIPLFKSAIFQLRVTSSEFESFEDVRSLYEGGIKLPTDILSQISPLPALKEIFRTDGENVLQFPPPHVAKVSKSGVMTDEEFAREVIAGVNPNVIRRLQEFPPKSTLDPTLYGDQTSTITKEQLEINMGGVTVEEALSTQRLFILDYQDAFIPYLTRINSLPTAKAYATRTILFLKDDGTLKPLAIELSKPHPDGDNLGPESIVVLPATEGVDSTIWLLAKAHVIVNDSGYHQLVSHWLNTHAVMEPFAIATNRHLSVLHPIYKLLYPHYRDTININGLARQSLINADGIIEKSFLPGKYSIEMSSSVYKNWVFTHQALPADLVKRGLAIEDPSAPHGLRLVIEDYPYAVDGLEIWDAIKTWVHEYVSLYYPTDAAVQQDTELQAWWKEAVEKGHGDLKEKPWWPKKQTTEDLIQSCSIIVWTASALHAAVNFGQYPYGGLILNRPTLARRFIPAEGTPEYDEMVKNPQKAYLRTITPKFETLIDLSVIEILSRHASDEIYLGERETPNWTTDKKALEAFKRFGSKLTGIEGKINARNSDPSLRNRTGPVQLPYTLLHRSSEEGLTFKGIPNSISI,soluble
7,MAHHHHHHMWKAIFGKKVDSIKAIDSIYHLSDNDFRWLQGFPQLKGSDRVQTLASSEGEGSKDDYMEEPVGPVSHRDVLLYTVGIIKGATHPLLRESSLAVTGTHTKEGETFFTLDFR,not soluble
8,MSLQCALYDAGRCRSCQWITQPIPEQLSAKTADLKNLLADFPVEEWCAPVSGPEQGFRNKAKMVVSGSVEKPLLGMLHRDGTPEDLCDCPLYPASFAPVFAALKPFIARAGLTPYNVARKRGELKYILLTESQSDGGMMLRFVLRSETKLAQLRKALPWLQAQLPQLKVITVNIQPVHMAIMEGETEIYLTEQQALVERFNDVPLWIRPQSFFQTNPAVASQLYATARDWVRQLPVKHMWDLFCGVGGFGLHCATPDMQLTGIEIALEAIACAKQSAAELGLTRLQFQALDSTQFATAQGEVPELVLVNPPRRGIGKPLCDYLSTMAPRFIIYSSCNAQTMAKDIRELPGYRIERVQLFDMFPHTAHYEVLTLLVKMEGHHHHHH,soluble
9,MEKIKIIVASDSIGETAELVARAGISQFNPKQCKNELLRYPYIESFEDVDEVIQVAKDTNAIIVYTLIKPEMKQYMSEKVAEFQLKSVDIMGPLMDLLSASVEEKPYNEPGIVHRLDDAYFKKIDAIEFAVKYDDGKDPKGLPKADIVLLGISRTSKTPLSQYLAHKSYKVMNVPIVPEVTPPDGLYDIDPKKCIALKISEEKLNRIRKERLKQLGLGDTARYATEARIQEELNYFEEIVSEIGCPVIDVSQKAIEETANDIIHYIEQNKSKLEHHHHHH,not soluble
10,MNDKQYQEIASLLERLSRNNAMSIYGDWIKNSFSKELIASISVLTHNDLKILDSLFKQDLSISDVVSRTGLSQGGVSRRVNMMSEKGIIHKYQNDKNKKTVFLKLNPIGQELFDFHRKLHDHIKEIFFQKTQRFNEEQIRVVISFLEAILT,soluble
11,MSLVRIKDIALKAKVSSATVSRILNEDESLSVAGETRQRVINIAEELGYQTVAKRRKSRGQKQRAQPLIGVLSCLSPDQERQDPYFSSIRKGIEKECFEQEIFITNSIHLGSFQEHIFRELDGVIVIGRVHDEAVKHISGRLEHAVFINHSPDPQAYDSIGIDFESASRQAIDHLFDLGYKRLGYIGGQEKEHTLKDGQSIRRTIEDKRLTAFLESAAPQPEHVLIGEYSMREGYRLMKKAIDQGHLPEAFFIASDSMAIGALKALQEAGLQVPRDTAIVSFNGIEEAEFASTPLTTVKVYTEEMGRTGVKLLLDRLNGRTLPQHVTLPTTLIVRQSCGCTAKEGHHHHHH,soluble
12,MAHHHHHHMWRCGMMPRTRVLRFVWKQSYRDLLPPAAASAYVCGQLRWCDSCDGGGVPAVLESPSDAAGVYSFFSQSTASAVRALRDVTRSAHSLSITDRRLALDGLAVLLRENADLLASADALVTGMCLRDARRSLDAALNFILFCEQRLRTPTAAATTAVIMKDAASVDAEEVLHSFGCGGANICGDSHSVSTLTGKSSVALCVTAANYPLQWGMETVATALLRGSAAVWLPSLDTPLSALWLMHLLHRSNKNVVADSRGAVNIILCRADDVVAAFSRQQESGLSIVGLKNGFRDHQLSRNHQAHGIPSAISHGSISCITRWYHRVMKPSLAVVGSGHHHTETMAVRLDASRVAALICQHAFHGNGRMLYALHIAFVPKQDVLPVLQSVVQYVRNLRLGHSLDPSVNMGPLPGAAHMAAMKETVEAAVCCGDFKLQHVCGGFDVAMPAGFFCLPCAFYATVANVTPAGTEMSIRVLCETTARLRFGLDRLGGGPFVVVCGYDPPQQREALEVVLREKEQYVLHYW,not soluble
13,MTYLLLDYFDEKFPDEKAVKEMKPFRRHRWFFKEGTTNYSHSERNKLPEGAAYAGHRTPLISGECKVYGCWPNGYDNVGEEEWAKIPTDARQKFKAALNDTAEIVVSGIECRRSFQYIDDKLLSAMDNYSELEKLPVAYSFSATKFYPSLIPFLETRWTATKLDWKNHGQNNLDLSRTHLREITLDGEGLKSVSLPESCRTISFSSTLSPELKVYSPDGGSNLTLKIELEADHVPDVGLPQLEILVLDRAVKLDLLPVTNLYPNLYYLRICGKPGYLSNISSLRNLKTLEVLSLEEIFGFTAEEFPTPGTCPLLNTLWMESIPEEAGKQIKKKYKGKITELDIRKLRKPEWLAENLDNPLRHWDGSEFVPPAKFKKAVVIYRNARRDALVAANQYLIDRDAALLQNRLEQTGKEFVIAFNKLDGKSGFIETEEREDLCAAFQVILDAVDSSVNFLGFTMNHDRIWEIMNEHRDW,not soluble

# Source: the DeepSol protein solubility set
